Results from US20140087995A1 (published 2014).
Numbered stars: 1 amine (or outer) side, 2 acyl side, 3 side chain; on linkers, the order of the positions; unused ones are H or OH. Bridge positions count the residues as written; N and C are the ends. Side chains are listed from the residue outwards. Ends that are not written are not given here. * marks the point of attachment. C20 diacid = O=C(O)CCCCCCCCCCCCCCCCCCC(=O)*; γGlu = O=C(O)[C@H](CCC(=O)[*:2])N[*:1]; AEEA = NCCOCCOCC(=O)O

T1: rat calcitonin receptor (rat, UniProt P32214 25-516)
T1 construct: whole, on cells; Membranes prepared from transiently transfected BHK tk'ts 13 cells (Assay VIII); also called rCTR; rCT
T1 sequence (looked up): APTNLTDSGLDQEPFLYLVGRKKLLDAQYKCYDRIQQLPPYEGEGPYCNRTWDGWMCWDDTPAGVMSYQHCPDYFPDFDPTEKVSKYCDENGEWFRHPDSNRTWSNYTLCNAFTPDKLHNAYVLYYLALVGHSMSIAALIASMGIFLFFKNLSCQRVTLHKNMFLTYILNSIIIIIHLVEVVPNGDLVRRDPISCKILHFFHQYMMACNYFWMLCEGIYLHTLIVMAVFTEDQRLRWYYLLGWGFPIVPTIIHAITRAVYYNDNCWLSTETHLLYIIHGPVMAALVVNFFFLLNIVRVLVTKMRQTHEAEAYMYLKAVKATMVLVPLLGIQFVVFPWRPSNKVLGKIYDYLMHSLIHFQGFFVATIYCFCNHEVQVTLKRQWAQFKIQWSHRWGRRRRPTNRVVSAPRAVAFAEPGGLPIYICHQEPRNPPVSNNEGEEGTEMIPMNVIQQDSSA

T2: human calcitonin receptor (human, UniProt P30988 25-474)
T2 construct: whole, on cells; Membranes prepared from a stably transfected BHK cell line (Assay VII); also called hCTR; hCT
T2 sequence (looked up): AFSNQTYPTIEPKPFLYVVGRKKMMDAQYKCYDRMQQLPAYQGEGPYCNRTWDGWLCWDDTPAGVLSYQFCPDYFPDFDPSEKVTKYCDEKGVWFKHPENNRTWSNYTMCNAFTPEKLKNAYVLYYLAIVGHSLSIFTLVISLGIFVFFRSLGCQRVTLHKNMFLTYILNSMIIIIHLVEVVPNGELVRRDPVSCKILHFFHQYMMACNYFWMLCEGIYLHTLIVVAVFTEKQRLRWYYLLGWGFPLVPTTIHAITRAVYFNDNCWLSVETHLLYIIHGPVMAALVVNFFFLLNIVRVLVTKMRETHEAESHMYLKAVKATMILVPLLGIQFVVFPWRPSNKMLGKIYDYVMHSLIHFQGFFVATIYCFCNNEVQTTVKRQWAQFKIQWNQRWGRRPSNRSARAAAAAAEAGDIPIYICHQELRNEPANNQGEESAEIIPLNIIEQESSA

T3: rat amylin receptor (rat calcitonin receptor + rat RAMP 3) (rat, UniProt P32214 25-516; Q9JJ73 23-147)
T3 construct: whole, on cells; Membranes prepared from transiently transfected BHK tk'ts 13 cells (Assay VI); also called rAmylin-R; rAmylin
T3 sequence (looked up) 1: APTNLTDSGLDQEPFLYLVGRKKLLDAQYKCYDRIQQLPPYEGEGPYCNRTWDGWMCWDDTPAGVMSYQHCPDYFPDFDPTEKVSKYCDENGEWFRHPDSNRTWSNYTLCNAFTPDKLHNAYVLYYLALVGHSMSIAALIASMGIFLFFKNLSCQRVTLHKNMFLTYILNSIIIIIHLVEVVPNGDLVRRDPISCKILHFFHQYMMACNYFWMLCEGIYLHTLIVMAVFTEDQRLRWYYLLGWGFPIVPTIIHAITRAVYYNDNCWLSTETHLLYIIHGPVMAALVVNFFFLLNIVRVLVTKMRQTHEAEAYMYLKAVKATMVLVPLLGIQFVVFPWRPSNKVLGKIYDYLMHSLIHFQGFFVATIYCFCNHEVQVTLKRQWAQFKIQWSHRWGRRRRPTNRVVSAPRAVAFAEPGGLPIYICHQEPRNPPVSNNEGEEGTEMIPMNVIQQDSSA
T3 sequence (looked up) 2: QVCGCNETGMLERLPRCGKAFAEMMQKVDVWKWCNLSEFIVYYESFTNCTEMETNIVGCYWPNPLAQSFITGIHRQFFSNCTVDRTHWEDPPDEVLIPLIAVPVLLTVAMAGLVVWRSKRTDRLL


Legend:
[1] = target: T1, rat calcitonin receptor; assay: SPA competition vs 125I-calcitonin, membranes of BHK cells with rat calcitonin receptor (Assay VIII)
[2] = target: T1, rat calcitonin receptor; assay: ratio of binding IC50s: rat calcitonin receptor / rat amylin receptor (reference)
[3] = target: T2, human calcitonin receptor; assay: ratio of binding IC50s: human calcitonin receptor / human amylin receptor (reference)
How it was run: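 IC₅₀ values were derived by one-site competition analysis of SPA counts. Cell membranes (35 ng/μL) with SPA beads were incubated with test compounds for 120 min at 25° C in Hepes buffer, pH 7.4, containing CaCl2, MgCl₂, OA and Tween20.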

[4] = target: T3, rat amylin receptor (rat calcitonin …); assay: SPA competition vs 125I-rat amylin, membranes of BHK cells with rat calcitonin receptor + rat RAMP3 (Assay VI)

IC50 [1] [nM]	Ratio rCT/rAmylin binding [2]	Ratio hCT/hAmylin binding [3]	IC50 [4] [nM]	Binder
18.2	74.1	42.2	0.246	K([AEEA-C20 diacid])CNTATCATQRLAHFLRHSSPNFGAIPSSTNVGSNTY-NH2 (disulfide 2-7; N-terminus assumed; SMILES CC[C@H](C)[C@H](NC(=O)[C@H](C)NC(=O)CNC(=O)[C@H](Cc1ccccc1)NC(=O)[C@H](CC(N)=O)NC(=O)[C@@H]1CCCN1C(=O)[C@H](CO)NC(=O)[C@H](CO)NC(=O)[C@H](Cc1c[nH]cn1)NC(=O)[C@H](CCCNC(=N)N)NC(=O)[C@H](CC(C)C)NC(=O)[C@H](Cc1ccccc1)NC(=O)[C@H](Cc1c[nH]cn1)NC(=O)[C@H](C)NC(=O)[C@H](CC(C)C)NC(=O)[C@H](CCCNC(=N)N)NC(=O)[C@H](CCC(N)=O)NC(=O)[C@@H](NC(=O)[C@H](C)NC(=O)[C@@H]1CSSC[C@H](NC(=O)[C@@H](N)CCCCNC(=O)COCCOCCNC(=O)CCCCCCCCCCCCCCCCCCC(=O)O)C(=O)N[C@@H](CC(N)=O)C(=O)N[C@@H]([C@@H](C)O)C(=O)N[C@@H](C)C(=O)N[C@@H]([C@@H](C)O)C(=O)N1)[C@@H](C)O)C(=O)N1CCC[C@H]1C(=O)N[C@@H](CO)C(=O)N[C@@H](CO)C(=O)N[C@H](C(=O)N[C@@H](CC(N)=O)C(=O)N[C@H](C(=O)NCC(=O)N[C@@H](CO)C(=O)N[C@@H](CC(N)=O)C(=O)N[C@H](C(=O)N[C@@H](Cc1ccc(O)cc1)C(N)=O)[C@@H](C)O)C(C)C)[C@@H](C)O, Analogue of human amylin; also called compound 90) [N^ε1-[2-[2-[2-(19-carboxynonadecanoylamino)ethoxy]ethoxy]acetyl]-[His14,Arg17,Pro21,Pro27]-h-amylin]
104	156	145	0.668	K([γGlu-γGlu-C20 diacid])CNTATCATQRLAHFLRHSSPNFGAIPSSTNVGSNTY-NH2 (disulfide 2-7; N-terminus assumed; SMILES CC[C@H](C)[C@H](NC(=O)[C@H](C)NC(=O)CNC(=O)[C@H](Cc1ccccc1)NC(=O)[C@H](CC(N)=O)NC(=O)[C@@H]1CCCN1C(=O)[C@H](CO)NC(=O)[C@H](CO)NC(=O)[C@H](Cc1c[nH]cn1)NC(=O)[C@H](CCCNC(=N)N)NC(=O)[C@H](CC(C)C)NC(=O)[C@H](Cc1ccccc1)NC(=O)[C@H](Cc1c[nH]cn1)NC(=O)[C@H](C)NC(=O)[C@H](CC(C)C)NC(=O)[C@H](CCCNC(=N)N)NC(=O)[C@H](CCC(N)=O)NC(=O)[C@@H](NC(=O)[C@H](C)NC(=O)[C@@H]1CSSC[C@H](NC(=O)[C@@H](N)CCCCNC(=O)CC[C@H](NC(=O)CC[C@H](NC(=O)CCCCCCCCCCCCCCCCCCC(=O)O)C(=O)O)C(=O)O)C(=O)N[C@@H](CC(N)=O)C(=O)N[C@@H]([C@@H](C)O)C(=O)N[C@@H](C)C(=O)N[C@@H]([C@@H](C)O)C(=O)N1)[C@@H](C)O)C(=O)N1CCC[C@H]1C(=O)N[C@@H](CO)C(=O)N[C@@H](CO)C(=O)N[C@H](C(=O)N[C@@H](CC(N)=O)C(=O)N[C@H](C(=O)NCC(=O)N[C@@H](CO)C(=O)N[C@@H](CC(N)=O)C(=O)N[C@H](C(=O)N[C@@H](Cc1ccc(O)cc1)C(N)=O)[C@@H](C)O)C(C)C)[C@@H](C)O, Analogue of human amylin; also called compound 92)
